We go through two molecules from US20180162952A1 (AbbVie / Abbott, published 2018).

For test [1], the target named is T1, murine PTK7-His (murine, UniProt Q8BKG3 23-696, limits assumed).
T1 construct: also called mouse PTK7-His; mouse PTK7
T1 sequence (looked up): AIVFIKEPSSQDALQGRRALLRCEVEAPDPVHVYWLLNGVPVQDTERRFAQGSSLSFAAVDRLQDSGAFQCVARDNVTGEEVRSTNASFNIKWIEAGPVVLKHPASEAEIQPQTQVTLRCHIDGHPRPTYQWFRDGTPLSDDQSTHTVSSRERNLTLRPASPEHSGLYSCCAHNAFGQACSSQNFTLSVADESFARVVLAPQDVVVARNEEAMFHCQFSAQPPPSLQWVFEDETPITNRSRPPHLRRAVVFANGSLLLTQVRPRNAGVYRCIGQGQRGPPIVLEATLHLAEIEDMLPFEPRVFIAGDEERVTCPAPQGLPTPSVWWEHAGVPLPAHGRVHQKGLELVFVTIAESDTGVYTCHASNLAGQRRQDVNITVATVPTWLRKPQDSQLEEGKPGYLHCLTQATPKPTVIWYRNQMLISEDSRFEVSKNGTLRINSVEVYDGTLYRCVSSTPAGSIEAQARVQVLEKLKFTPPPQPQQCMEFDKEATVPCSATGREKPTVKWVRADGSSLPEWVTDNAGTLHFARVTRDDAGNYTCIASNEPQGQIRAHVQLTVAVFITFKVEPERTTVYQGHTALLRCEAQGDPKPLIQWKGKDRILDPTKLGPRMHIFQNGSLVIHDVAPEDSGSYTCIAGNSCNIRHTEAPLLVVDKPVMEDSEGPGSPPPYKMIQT
Description: ForteBio bio-layer interferometry, one antigen concentration (400 nM).

Test [2] concerns the target T2, human PTK7, full length, expressed on transduced cells (human, UniProt Q13308 31-1070).
T2 sequence: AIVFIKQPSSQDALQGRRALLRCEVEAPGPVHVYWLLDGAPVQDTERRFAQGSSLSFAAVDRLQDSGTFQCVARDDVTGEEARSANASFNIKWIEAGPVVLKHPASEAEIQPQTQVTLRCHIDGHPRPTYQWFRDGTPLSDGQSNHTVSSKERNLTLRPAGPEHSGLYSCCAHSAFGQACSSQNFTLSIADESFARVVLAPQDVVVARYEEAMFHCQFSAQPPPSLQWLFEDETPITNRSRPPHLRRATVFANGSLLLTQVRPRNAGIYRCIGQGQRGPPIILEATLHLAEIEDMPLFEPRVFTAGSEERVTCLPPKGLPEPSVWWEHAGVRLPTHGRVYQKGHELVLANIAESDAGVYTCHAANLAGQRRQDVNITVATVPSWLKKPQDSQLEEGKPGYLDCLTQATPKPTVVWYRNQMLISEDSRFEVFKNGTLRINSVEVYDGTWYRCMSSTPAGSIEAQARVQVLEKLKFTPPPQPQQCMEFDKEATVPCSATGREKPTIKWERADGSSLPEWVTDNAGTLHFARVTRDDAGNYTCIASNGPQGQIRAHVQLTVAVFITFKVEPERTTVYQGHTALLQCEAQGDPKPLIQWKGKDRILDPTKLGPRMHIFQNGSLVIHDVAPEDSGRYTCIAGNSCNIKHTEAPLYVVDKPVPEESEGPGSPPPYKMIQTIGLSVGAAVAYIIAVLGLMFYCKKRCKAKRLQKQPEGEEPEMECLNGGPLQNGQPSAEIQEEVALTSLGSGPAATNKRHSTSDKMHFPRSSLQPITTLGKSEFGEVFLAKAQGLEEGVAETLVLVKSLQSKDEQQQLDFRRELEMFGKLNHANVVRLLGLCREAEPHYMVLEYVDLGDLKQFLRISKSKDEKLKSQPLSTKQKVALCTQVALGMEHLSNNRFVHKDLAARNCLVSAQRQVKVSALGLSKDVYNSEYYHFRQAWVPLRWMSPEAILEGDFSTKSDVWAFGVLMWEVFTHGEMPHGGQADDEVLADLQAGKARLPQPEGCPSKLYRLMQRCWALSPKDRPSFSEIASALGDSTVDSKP
Kind of test: cell-based or functional assay.

The target in test [3] is T1, murine PTK7-His. Kind of test: ForteBio bio-layer interferometry, mouse PTK7-His against human PTK7-His. A general note: In BLI a coated tip is dipped into the sample, and binding shifts an interference pattern.
Test [4] deals with T3, PTK7 ECD Ig domains 1-2 Fc fusion (human).
T3 construct: Tested as supernatant of transfected 293 cells
T3 chain: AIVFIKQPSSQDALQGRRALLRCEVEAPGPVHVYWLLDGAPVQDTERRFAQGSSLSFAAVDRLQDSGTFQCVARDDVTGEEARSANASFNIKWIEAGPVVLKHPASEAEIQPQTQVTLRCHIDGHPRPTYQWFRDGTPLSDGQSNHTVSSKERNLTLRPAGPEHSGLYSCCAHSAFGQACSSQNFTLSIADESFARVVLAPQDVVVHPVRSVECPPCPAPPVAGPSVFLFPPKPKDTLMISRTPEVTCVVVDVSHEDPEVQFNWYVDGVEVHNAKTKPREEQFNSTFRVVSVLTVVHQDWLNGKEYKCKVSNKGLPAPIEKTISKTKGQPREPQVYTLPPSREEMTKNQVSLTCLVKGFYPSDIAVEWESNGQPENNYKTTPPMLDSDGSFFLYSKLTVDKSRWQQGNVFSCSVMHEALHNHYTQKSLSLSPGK
Description: ELISA, Ig-domain Fc fusion captured by anti-human IgG Fc. Background: In an ELISA, binding on a coated surface is turned into a signal by an enzyme label.
Description: Using these constructs several modulators were tested for their ability to recognize PTK7 proteins with deletions of defined Ig domains. Through an ELISA assay comprising the use of domain deleted constructs and run under standard conditions. In this regard PTK7 Ig domain Fc fusions were captured on ELISA plate coated with goat anti-human IgG Fc-specific (Jackson Immunoresearch) antibody. The ability of each murine anti-PTK7 antibody to bind the various deletion Fc fusion proteins was then detected with HRP-labeled goat anti-mouse Fc-specific antibody.

B1: SC6.10.2 (antibody, V domains shown)
VH: QVQLQQSGAELVRPGVSVKISCKGSGYRFTDYPIHWVKQSHAKSLEWIGIISTYYGDVTNNPKFRGKATMTVDKSSTTAYMELARLTSEDSAIYYCARNDLFAYWGQGTLVTVSA
VL: DIVMTQSQKFMSTSVGDRVNVTCKASQNVGTNVVWYQQKTGQSPKALIHSASYRYSGVPDRFTGSGSGTDFTLTLSNVQSEDLAEYFCQHYNSFPYTFGGGTKLEIKR
notes: Murine monoclonal antibody from a hybridoma; also called H10.2; H10
As to B1, the binding result with murine PTK7-His [1] is recorded as “no binding (tested: 400 nM)”. Also, the “EC50, saporin (Fab-ZAP) cell killing, 293.PTK7 Cells” value in test [2] came out at 1.1 pM.

B2: SC6.2.35 (antibody, V domains shown)
VH: QVQMQQSGAELMKPGASVKLSCKATGYTFTGYWIEWVKQRPGHGLEWIGEILPGSGRSNSNEKFKGKATFTADTSSNTAYMQLSSLTTEDSAIYYCARGKLSWGQGTLVTVSA
VL: DIVLTQSPASLAVSLGQRATISCRASESVDSFGNSFMHWYQQKPGQPPKLLIYAASNLGSGVPARFSGSGSGTDFSLNIHPVEEDDSAMYFCQQSKEVPRTFGGGSRLEIKR
notes: Murine monoclonal antibody from a hybridoma; also called H2.35; SC6.H2
As to B2, in the test with murine PTK7-His [3], the “binding to mouse PTK7 relative to human” value is about 10%. In addition, the binding result in test [4] is on record as “binds”. In test [2], the “EC50, saporin (Fab-ZAP) cell killing, 293.PTK7 Cells” value came to 0.65 pM.
